The text below walks through data of patent US20240400708A1.

The target of assay [1] is feline FcRn complex (FcRn-α subunit and β-microglobulin) (feline). The assay is described as follows: SPR (Biacore), FcRn on SA chip, pH 6. Background: SPR reads the build-up and loss of mass on a sensor chip optically.
For assay [2] the target is unchanged. Description: SPR (Biacore), FcRn on SA chip, pH 7.4.

B1: feline IgG1a mutant ID No. 281: S252Y, D312P, L314K, S434Y (antibody, part only; not given: Variable domains, not shown: another chain or arm of the molecule)
constant: ASTTAPSVFPLAPSCGTTSGATVALACLVLGYFPEPVTVSWNSGALTSGVHTFPAVLQASGLYSLSSMVTVPSSRWLSDTFTCNVAHPPSNTKVDKTVRKTDHPPGPKPCDCPKCPPPEMLGGPSIFIFPPKPKDTLYISRTPEVTCLVVDLGPDDSDVQITWFVDNTQVYTAKTSPREEQFNSTYRVVSVLPILHQPWKKGKEFKCKVNSKSLPSPIERTISKAKGQPHEPQVYVLPPAQEELSRNKVSVTCLIKSFHPPDIAVEWEITGQPEPENNYRTTPPQLDSDGTYFVYSKLSVDRSHWQRGNTYTCSVSHEALHYHHTQKSLTQSPGK
A word on the Kd: it is a measure of binding affinity in units of concentration. A high value points to lower affinity. As to B1, the dissociation constant Kd was determined as 2.35 nM in assay [1] and 1590 nM in assay [2].

B2: feline IgG1a mutant ID No. 287: S252Y, S428Y, D312P, L314K, S434Y (antibody, part only; not given: Variable domains, not shown: another chain or arm of the molecule)
constant: ASTTAPSVFPLAPSCGTTSGATVALACLVLGYFPEPVTVSWNSGALTSGVHTFPAVLQASGLYSLSSMVTVPSSRWLSDTFTCNVAHPPSNTKVDKTVRKTDHPPGPKPCDCPKCPPPEMLGGPSIFIFPPKPKDTLYISRTPEVTCLVVDLGPDDSDVQITWFVDNTQVYTAKTSPREEQFNSTYRVVSVLPILHQPWKKGKEFKCKVNSKSLPSPIERTISKAKGQPHEPQVYVLPPAQEELSRNKVSVTCLIKSFHPPDIAVEWEITGQPEPENNYRTTPPQLDSDGTYFVYSKLSVDRSHWQRGNTYTCSVYHEALHYHHTQKSLTQSPGK
Turning to B2, the Kd in assay [1] turned out to be 0.633 nM; in assay [2] it was 127 nM.

B3: feline IgG1a mutant ID No. 285: S252Y, Q311W, L314K, S434Y (antibody, part only; not given: Variable domains, not shown: another chain or arm of the molecule)
constant: ASTTAPSVFPLAPSCGTTSGATVALACLVLGYFPEPVTVSWNSGALTSGVHTFPAVLQASGLYSLSSMVTVPSSRWLSDTFTCNVAHPPSNTKVDKTVRKTDHPPGPKPCDCPKCPPPEMLGGPSIFIFPPKPKDTLYISRTPEVTCLVVDLGPDDSDVQITWFVDNTQVYTAKTSPREEQFNSTYRVVSVLPILHWDWKKGKEFKCKVNSKSLPSPIERTISKAKGQPHEPQVYVLPPAQEELSRNKVSVTCLIKSFHPPDIAVEWEITGQPEPENNYRTTPPQLDSDGTYFVYSKLSVDRSHWQRGNTYTCSVSHEALHYHHTQKSLTQSPGK
Turning to B3, the Kd in assay [1] came out at 1.21 nM; in assay [2] it was 1730 nM.

B4: feline IgG1a mutant ID No. 288: S252Y, S428Y, D312P, S434Y (antibody, part only; not given: Variable domains, not shown: another chain or arm of the molecule)
constant: ASTTAPSVFPLAPSCGTTSGATVALACLVLGYFPEPVTVSWNSGALTSGVHTFPAVLQASGLYSLSSMVTVPSSRWLSDTFTCNVAHPPSNTKVDKTVRKTDHPPGPKPCDCPKCPPPEMLGGPSIFIFPPKPKDTLYISRTPEVTCLVVDLGPDDSDVQITWFVDNTQVYTAKTSPREEQFNSTYRVVSVLPILHQPWLKGKEFKCKVNSKSLPSPIERTISKAKGQPHEPQVYVLPPAQEELSRNKVSVTCLIKSFHPPDIAVEWEITGQPEPENNYRTTPPQLDSDGTYFVYSKLSVDRSHWQRGNTYTCSVYHEALHYHHTQKSLTQSPGK
In the case of B4, the results for the dissociation constant (Kd) in assay [1] and in assay [2] were 0.0268 nM and 3.22 nM, respectively.

B5: feline IgG1a mutant ID No. 283: S252Y, Q311W, D312P, L314K, S434Y (antibody, part only; not given: Variable domains, not shown: another chain or arm of the molecule)
constant: ASTTAPSVFPLAPSCGTTSGATVALACLVLGYFPEPVTVSWNSGALTSGVHTFPAVLQASGLYSLSSMVTVPSSRWLSDTFTCNVAHPPSNTKVDKTVRKTDHPPGPKPCDCPKCPPPEMLGGPSIFIFPPKPKDTLYISRTPEVTCLVVDLGPDDSDVQITWFVDNTQVYTAKTSPREEQFNSTYRVVSVLPILHWPWKKGKEFKCKVNSKSLPSPIERTISKAKGQPHEPQVYVLPPAQEELSRNKVSVTCLIKSFHPPDIAVEWEITGQPEPENNYRTTPPQLDSDGTYFVYSKLSVDRSHWQRGNTYTCSVSHEALHYHHTQKSLTQSPGK
With B5, the Kd is 1.14 nM in assay [1] and 300 nM in assay [2].

B6: feline IgG1a mutant ID No. 282: S252Y, Q311W, D312P, L314K (antibody, part only; not given: Variable domains, not shown: another chain or arm of the molecule)
constant: ASTTAPSVFPLAPSCGTTSGATVALACLVLGYFPEPVTVSWNSGALTSGVHTFPAVLQASGLYSLSSMVTVPSSRWLSDTFTCNVAHPPSNTKVDKTVRKTDHPPGPKPCDCPKCPPPEMLGGPSIFIFPPKPKDTLYISRTPEVTCLVVDLGPDDSDVQITWFVDNTQVYTAKTSPREEQFNSTYRVVSVLPILHWPWKKGKEFKCKVNSKSLPSPIERTISKAKGQPHEPQVYVLPPAQEELSRNKVSVTCLIKSFHPPDIAVEWEITGQPEPENNYRTTPPQLDSDGTYFVYSKLSVDRSHWQRGNTYTCSVSHEALHSHHTQKSLTQSPGK
For B6, the Kd in assay [1] turned out to be 30 nM; in assay [2], 119 nM.
